B1: NF2 (merlin) isoform 7, human, full length (507 aa, lacks exons 2-3 = isoform-1 residues 39-121; exon-16 C-terminus), P35240-4 (parent)
chain: MAGAIASRMSFSSLKRKQPKTFTVRIVTMDAEMEFNCEVKKQILDEKIYCPPEASVLLASYAVQAKYGDYDPSVHKRGFLAQEELLPKRVINLYQMTPEMWEERITAWYAEHRGRARDEAEMEYLKIAQDLEMYGVNYFAIRNKKGTELLLGVDALGLHIYDPENRLTPKISFPWNEIRNISYSDKEFTIKPLDKKIDVFKFNSSKLRVNKLILQLCIGNHDLFMRRRKADSLEVQQMKAQAREEKARKQMERQRLAREKQMREEAERTRDELERRLLQMKEEATMANEALMRSEETADLLAEKAQITEEEAKLLAQKAAEAEQEMQRIKATAIRTEEEKRLMEQKVLEAEVLALKMAEESERRAKEADQLKQDLQEAREAERRAKQKLLEIATKPTYPPMNPIPAPLPPDIPSFNLIGDSLSFDFKDTDMKRLSMEIEKEKVEYMEKSKHLQEQLNELKTEIEALKLKERETALDILHNENSDRGGSSKHNTIKKPQAQGRRPICI

This is an account of results in paper PMC10244618.

Values joined by “and” are separate entries in the source; they are usually repeats but may differ in a detail not shown here. Equal values may be shown once.

The variants in the first test derive from B1. Description: reverse yeast two-hybrid deep mutational scan (rY2H-seq): NF2 isoform 7 mutant library as bait mated with wild-type prey strains; selection on medium lacking adenine for non-interacting pairs; NextSeq paired-end sequencing; enrichment vs …. Particulars: with KDM1A (lysine-specific histone demethylase 1A; the table's label AOF2 is a gene synonym of KDM1A), O60341; yeast diploids after mating (RBait_S3 x RPrey_S3), 30 °C, selection for reporter genes on NB agar; human ABL2 co-expressed as the kinase-dead K35M mutant …; HIGHER = WEAKER BINDING (the opposite of display enrichments): higher = stronger loss of interaction: reverse Y2H selects yeast in which bait and prey do NOT interact (growth without adenine), so a …; hits-only table; scale: rY2H score; numbering: uniprot, sequence starts at 1. (In a reporter assay the amount or activity of a reporter protein is the signal.)
In the case of G78K, the enrichment is 1.76. On to A365L, for which the enrichment was 2.1.

For L158I, the enrichment turned out to be 2.37. As to M122A, the enrichment came to 3.3. The same measure, in the same setting: with L389K the figure was 2.15; with L389S, 1.45; with Q345K, 2.79. On to K356L, for which the enrichment stood at 3.88. Same read-out and setting: the result for A290V reads 1.65; that for T336L, 2.98. Same read-out and setting: with E382A the figure was 2.37; with S414E, 1.73. On to S414L, for which the enrichment was determined as 3.17. R25E: the enrichment is 3.64 and 8.74. Same read-out and setting: the result for N402L reads 1.53; that for L167E, 2.5; that for L167A, 1.67. On the same count and under the same terms, with Q64L the figure was 2.29; with I160C, 1.87. Same read-out and setting: with E295K the figure was 1.91. On to A247E, for which the enrichment came to 7.37. Same read-out and setting: with Q250L the figure was 2.08; with Q250D, 1.46; with E282K, 1.54.

Take L408K: the enrichment stood at 1.88.

In the case of S361P, the enrichment was 2. Same read-out and setting: with S361A the figure was 5; with S12L, 5.88. Same read-out and setting: with D484K the figure was 4.88. The same measure, in the same setting: with W175C the figure was 2.59; with H75S, 2.92; with K15E, 3.69. For K15L, the enrichment is 1.66.

As to Y67A, the enrichment stood at 3.02. Consider E34A, for which the enrichment stood at 1.5. For the variant R166G, the enrichment came to 1.77. Same read-out and setting: with R166E the figure was 1.81; with A59S, 4.04; with R384E, 2.89.

In the case of F173V, the enrichment came to 2.3.

With E187K, the enrichment came out at 1.65. Same read-out and setting: with A358L the figure was 7.18; with A385E, 2.26 and 2.39.

For I171D, the enrichment is 5.35. Same read-out and setting: the result for L417I reads 4.11. Regarding L417E, the enrichment came out at 2.45. Still for that read-out and setting: the result for D411C reads 2.42.

The same test, now with this note: with KDM1A (lysine-specific histone demethylase 1A; the table's label AOF2 is a gene synonym of KDM1A), O60341; yeast diploids after mating (RBait_S3 x RPrey_S3), 30 °C, selection for reporter genes on NB agar; human tyrosine kinase ABL2 co-expressed as the active kinase …; HIGHER = WEAKER BINDING (the opposite of display enrichments): higher = stronger loss of interaction: reverse Y2H selects yeast in which bait and prey do NOT interact (growth without adenine), so a …; hits-only table; scale: rY2H score; numbering: uniprot, sequence starts at 1.
With G78K, the enrichment turned out to be 5.27. Same read-out and setting: with L389E the figure was 1.87. Still for that read-out and setting: the result for Q345K reads 1.61; that for Q250D, 1.65; that for K469A, 3. Same read-out and setting: the result for S361A reads 2.29 and 3.4. Consider H75S, for which the enrichment worked out at 3.22. Same read-out and setting: the result for T429K reads 11.2.

For the variant R166G, the enrichment is 1.84. Still for that read-out and setting: the result for A358L reads 6.77; that for A385E, 2.59 and 2.4; that for L417E, 3.12.

Still in this test, the particulars now being: with NF2 C-terminal domain (wild type; homomeric NF2-NF2 interaction), P35240; yeast diploids after mating (RBait_S3 x RPrey_S3), 30 °C, selection for reporter genes on NB agar; human ABL2 co-expressed as the kinase-dead K35M mutant …; HIGHER = WEAKER BINDING (the opposite of display enrichments): higher = stronger loss of interaction: reverse Y2H selects yeast in which bait and prey do NOT interact (growth without adenine), so a …; hits-only table; partner unresolved; scale: rY2H score; numbering: uniprot, sequence starts at 1.
With A365L, the enrichment was 2.32. For the variant M122A, the enrichment is 2.37. The same measure, in the same setting: with L389K the figure was 4.56 and 2.51; with E382A, 2.83. Same read-out and setting: the result for L167E reads 4.14 and 3.2; that for E295K, 2.66. On the same count and under the same terms, the result for A247E reads 6.62; that for K469A, 2.32 and 4.81; that for K460E, 3.55. For the variant H75S, the enrichment was found to be 2.58. Same read-out and setting: the result for A385E reads 2.06.

The same test, now with this note: with PIK3R3 (phosphatidylinositol 3-kinase regulatory subunit gamma), Q92569; yeast diploids after mating (RBait_S3 x RPrey_S3), 30 °C, selection for reporter genes on NB agar; human tyrosine kinase ABL2 co-expressed as the active kinase …; HIGHER = WEAKER BINDING (the opposite of display enrichments): higher = stronger loss of interaction: reverse Y2H selects yeast in which bait and prey do NOT interact (growth without adenine), so a …; hits-only table; scale: rY2H score; numbering: uniprot, sequence starts at 1.
Turning to L158I, the enrichment is 1.48 and 2.46. The same measure, in the same setting: with L389K the figure was 2.43.

Turning to K356L, the enrichment was 7.08. Same read-out and setting: the result for A290V reads 2.94.

Turning to E382A, the enrichment was 3 and 1.89.

With S414L, the enrichment worked out at 3.79.

Turning to Q64L, the enrichment stood at 6.71. Same read-out and setting: with I160C the figure was 1.68; with S361P, 3.03. R166G: the enrichment was 1.44. Still for that read-out and setting: the result for R166E reads 1.52; that for A358L, 4.62. Still for that read-out and setting: with A385E the figure was 4.1. Same read-out and setting: the result for I171D reads 3.5 and 7.01. For L417E, the enrichment amounted to 2.19.

The same test, now with this note: with EMILIN1 (elastin microfibril interfacer 1), Q9Y6C2; yeast diploids after mating (RBait_S3 x RPrey_S3), 30 °C, selection for reporter genes on NB agar; human tyrosine kinase ABL2 co-expressed as the active kinase …; HIGHER = WEAKER BINDING (the opposite of display enrichments): higher = stronger loss of interaction: reverse Y2H selects yeast in which bait and prey do NOT interact (growth without adenine), so a …; hits-only table; scale: rY2H score; numbering: uniprot, sequence starts at 1.
For L389E, the enrichment amounted to 2.12.

As for E382A, the enrichment is 1.65.

Take N402L: the enrichment amounted to 1.47. With N402Q, the enrichment came to 2.62. On the same count and under the same terms, with S489E the figure was 7.56; with K395Q, 1.8.

Regarding E444A, the enrichment was 10.3 and 7.31. Same read-out and setting: with K469A the figure was 5.72; with K460E, 6.17. Still for that read-out and setting: with G419L the figure was 2.72; with P399K, 1.52; with P399R, 2.33. Same read-out and setting: the result for D484K reads 2.87.

For the variant T397L, the enrichment stood at 2.34.

Turning to D425L, the enrichment turned out to be 3.06. On the same count and under the same terms, the result for T429K reads 5.25; that for T461I, 1.49; that for L478A, 1.45.

As for M446V, the enrichment was found to be 2.65. Regarding L417I, the enrichment was 8.54. Still for that read-out and setting: the result for I404K reads 1.59.
